Assay results as given in patent US20180074053A1 (priority 2016, published 2018).
Non-standard residues stand in square brackets, D forms with d. No end group written: not given here.

Columns and labels:
[1] = system: STC-1 cells; assay: GLP-1 secretion from STC-1 cells (ELISA); type: cell-based, mouse; conditions: 2 hours, DMEM without serum and glucose; FIG. 3
Experimental: The pathways and sites of action of H89 and U73122 are graphically represented in FIG. 2.
Supernatants were collected for GLP-1 measurement. and the GLP-1 concentration was measured using a total GLP-1 (7-36 and 9-36) ELISA kit according to manufacturer's instruction (Alpco. Salem, N.H.).

[2] = system: HEK293T cells; conditions: 0.0037-0.1 mM; FIG. 4
Experimental: Real-time Ca2+ flux assays. To further validate the GPCRProfiler results, we established a real-time Ca2+ flux assay using a FlexStation 3 Microplate Reader (Molecular Devices). […] The Fluo-4 Direct™ Calcium Assay Kits (Life Technologies), which allows direct addition to wells containing cells growing in culture media without the requirement of media removal or a wash step, is used to monitor Ca2+ flux in cells according to the manufacturer's protocol. Briefly, HEK293T cells are plated and cultured in 96-well microplates to near confluence. The microplates containing cells are removed from the incubator and an equal volume of 2× Fluo-4 Direct™ calcium reagent loading solution is added directly to wells containing cells in culture medium. The plates are incubated for 30 minutes at 37° C. and 30 minutes at room temperature. Then the plates (no need to remove the medium or Fluo-4 Direct™ calcium reagent) are placed on FlexStation 3 with settings appropriate for excitation at 494 nm and emission at 516 nm. FlexStation 3 can directly transfer reagents from 96-well source plates to a read plate one column at a time. […] Shaded shapes are negative controls.

[3] = biological target: MCHR2 (UniProt Q969V1 1-340, limits assumed); assay: cell-based or functional assay
Chain of MCHR2 (Q969V1 whole entry): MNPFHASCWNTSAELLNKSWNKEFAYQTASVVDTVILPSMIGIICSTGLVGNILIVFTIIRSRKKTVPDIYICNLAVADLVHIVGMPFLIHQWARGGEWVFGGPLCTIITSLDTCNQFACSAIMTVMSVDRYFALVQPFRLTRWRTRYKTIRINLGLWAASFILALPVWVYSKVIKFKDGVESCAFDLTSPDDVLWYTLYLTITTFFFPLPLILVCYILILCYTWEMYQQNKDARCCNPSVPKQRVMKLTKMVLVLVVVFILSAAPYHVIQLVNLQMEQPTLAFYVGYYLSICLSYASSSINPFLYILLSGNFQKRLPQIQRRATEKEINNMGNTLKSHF

[4] = biological target: MC2 (UniProt Q01718 1-297); assay: cell-based or functional assay
Chain of MC2 (Q01718 whole entry): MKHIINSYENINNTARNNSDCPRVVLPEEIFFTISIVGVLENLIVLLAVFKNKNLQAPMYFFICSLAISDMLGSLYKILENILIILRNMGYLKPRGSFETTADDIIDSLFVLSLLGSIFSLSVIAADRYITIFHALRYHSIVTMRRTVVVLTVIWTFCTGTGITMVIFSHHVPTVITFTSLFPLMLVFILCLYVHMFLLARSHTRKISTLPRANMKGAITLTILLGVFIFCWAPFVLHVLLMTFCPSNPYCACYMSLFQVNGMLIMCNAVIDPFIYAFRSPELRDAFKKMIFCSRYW

[5] = biological target: MCHR1 (UniProt Q99705 1-353, limits assumed); assay: cell-based or functional assay
Chain of MCHR1 (Q99705 whole entry): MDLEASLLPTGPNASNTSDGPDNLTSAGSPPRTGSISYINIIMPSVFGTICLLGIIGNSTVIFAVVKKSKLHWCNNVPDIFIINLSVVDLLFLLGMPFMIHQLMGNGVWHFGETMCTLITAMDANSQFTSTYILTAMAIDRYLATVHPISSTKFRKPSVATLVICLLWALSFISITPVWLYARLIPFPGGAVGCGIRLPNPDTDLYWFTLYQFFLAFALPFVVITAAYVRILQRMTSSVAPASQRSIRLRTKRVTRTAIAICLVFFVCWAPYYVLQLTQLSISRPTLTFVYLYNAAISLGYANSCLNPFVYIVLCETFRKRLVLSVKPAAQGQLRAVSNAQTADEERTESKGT

[6] = biological target: MRGX1 (UniProt Q96LB2 1-322, limits assumed); assay: cell-based or functional assay
Chain of MRGX1 (Q96LB2 whole entry): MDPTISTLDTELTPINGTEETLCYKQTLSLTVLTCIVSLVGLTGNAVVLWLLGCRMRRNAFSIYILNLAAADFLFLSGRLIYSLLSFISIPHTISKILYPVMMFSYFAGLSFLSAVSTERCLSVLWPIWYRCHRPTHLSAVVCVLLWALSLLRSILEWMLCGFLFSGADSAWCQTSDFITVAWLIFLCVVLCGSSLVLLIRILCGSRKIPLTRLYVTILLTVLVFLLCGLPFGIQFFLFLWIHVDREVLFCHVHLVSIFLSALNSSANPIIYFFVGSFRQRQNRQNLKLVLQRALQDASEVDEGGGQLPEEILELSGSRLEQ

[7] = biological target: T1, MRGX2 (UniProt Q96LB1 1-330, limits assumed); assay: cell-based or functional assay
T1 sequence (looked up): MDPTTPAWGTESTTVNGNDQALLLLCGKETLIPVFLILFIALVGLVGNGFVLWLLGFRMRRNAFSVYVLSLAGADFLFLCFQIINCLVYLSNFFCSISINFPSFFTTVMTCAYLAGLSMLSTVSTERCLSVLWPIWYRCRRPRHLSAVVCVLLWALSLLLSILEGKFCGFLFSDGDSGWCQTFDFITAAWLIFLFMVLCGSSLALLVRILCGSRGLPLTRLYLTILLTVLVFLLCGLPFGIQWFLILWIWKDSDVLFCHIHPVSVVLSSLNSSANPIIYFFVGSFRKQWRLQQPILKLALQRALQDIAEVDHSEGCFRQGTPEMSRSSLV

[8] = biological target: MC5 (UniProt P33032 1-325); assay: cell-based or functional assay
Chain of MC5 (P33032 whole entry): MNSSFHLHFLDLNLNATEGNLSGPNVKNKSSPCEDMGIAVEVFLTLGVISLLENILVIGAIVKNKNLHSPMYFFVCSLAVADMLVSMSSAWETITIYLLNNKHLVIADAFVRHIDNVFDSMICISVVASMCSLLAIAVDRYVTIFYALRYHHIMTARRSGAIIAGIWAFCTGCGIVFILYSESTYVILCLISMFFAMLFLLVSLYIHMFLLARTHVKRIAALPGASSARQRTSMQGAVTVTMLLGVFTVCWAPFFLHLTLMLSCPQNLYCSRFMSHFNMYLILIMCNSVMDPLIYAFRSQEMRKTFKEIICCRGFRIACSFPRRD

[9] = biological target: MAS-related G-protein-coupled receptor member D (MRGD) (human, UniProt Q8TDS7 1-321); assay: cell-based or functional assay
Chain of MAS-related G-protein-coupled receptor member D (MRGD) (Q8TDS7 whole entry): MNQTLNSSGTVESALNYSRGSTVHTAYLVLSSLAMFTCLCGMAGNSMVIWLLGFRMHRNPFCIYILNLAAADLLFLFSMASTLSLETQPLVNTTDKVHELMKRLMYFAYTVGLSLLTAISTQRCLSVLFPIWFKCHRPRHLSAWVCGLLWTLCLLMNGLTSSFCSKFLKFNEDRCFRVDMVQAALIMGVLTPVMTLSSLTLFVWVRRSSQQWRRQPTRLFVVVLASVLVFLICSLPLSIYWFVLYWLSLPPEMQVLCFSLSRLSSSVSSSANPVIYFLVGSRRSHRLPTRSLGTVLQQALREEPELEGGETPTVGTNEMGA

[10] = biological target: MC4 (UniProt P32245 1-332); assay: cell-based or functional assay
Chain of MC4 (P32245 whole entry): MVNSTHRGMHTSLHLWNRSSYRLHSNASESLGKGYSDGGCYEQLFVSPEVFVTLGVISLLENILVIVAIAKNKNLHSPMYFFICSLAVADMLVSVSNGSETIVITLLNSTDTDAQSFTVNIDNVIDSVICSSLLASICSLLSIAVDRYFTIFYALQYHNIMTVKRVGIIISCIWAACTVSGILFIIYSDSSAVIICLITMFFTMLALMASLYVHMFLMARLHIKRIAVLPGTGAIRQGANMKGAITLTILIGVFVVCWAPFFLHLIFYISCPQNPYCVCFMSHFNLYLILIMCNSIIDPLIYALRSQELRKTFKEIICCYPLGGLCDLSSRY

[11] = biological target: GPCR40, the free fatty acid receptor (human, UniProt O14842 1-300); assay: cell-based or functional assay
Chain of GPCR40, the free fatty acid receptor (O14842 whole entry): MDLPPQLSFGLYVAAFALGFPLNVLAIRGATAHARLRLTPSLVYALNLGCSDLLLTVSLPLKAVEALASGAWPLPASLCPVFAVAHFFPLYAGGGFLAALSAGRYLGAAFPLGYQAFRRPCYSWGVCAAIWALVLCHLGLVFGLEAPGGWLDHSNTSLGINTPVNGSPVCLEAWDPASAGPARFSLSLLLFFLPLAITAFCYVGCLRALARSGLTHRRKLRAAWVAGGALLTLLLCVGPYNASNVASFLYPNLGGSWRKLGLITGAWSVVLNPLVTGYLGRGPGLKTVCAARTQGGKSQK

[12] = biological target: T2, NK2 (UniProt P21452 1-398); assay: cell-based or functional assay
T2 sequence (looked up): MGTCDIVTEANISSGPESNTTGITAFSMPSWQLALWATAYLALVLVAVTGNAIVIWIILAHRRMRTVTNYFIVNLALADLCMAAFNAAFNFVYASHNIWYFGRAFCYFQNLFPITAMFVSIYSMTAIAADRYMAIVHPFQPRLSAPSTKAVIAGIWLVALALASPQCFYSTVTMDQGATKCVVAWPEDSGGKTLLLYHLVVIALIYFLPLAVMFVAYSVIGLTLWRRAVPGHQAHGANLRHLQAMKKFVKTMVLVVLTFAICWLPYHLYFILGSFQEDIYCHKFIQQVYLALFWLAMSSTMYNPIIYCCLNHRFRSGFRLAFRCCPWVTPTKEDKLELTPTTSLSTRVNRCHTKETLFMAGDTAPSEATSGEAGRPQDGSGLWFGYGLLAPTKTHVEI

[13] = biological target: GPCR 109a, the nicotinic acid receptor (human, UniProt Q8TDS4 1-363); assay: cell-based or functional assay
Chain of GPCR 109a, the nicotinic acid receptor (Q8TDS4 whole entry): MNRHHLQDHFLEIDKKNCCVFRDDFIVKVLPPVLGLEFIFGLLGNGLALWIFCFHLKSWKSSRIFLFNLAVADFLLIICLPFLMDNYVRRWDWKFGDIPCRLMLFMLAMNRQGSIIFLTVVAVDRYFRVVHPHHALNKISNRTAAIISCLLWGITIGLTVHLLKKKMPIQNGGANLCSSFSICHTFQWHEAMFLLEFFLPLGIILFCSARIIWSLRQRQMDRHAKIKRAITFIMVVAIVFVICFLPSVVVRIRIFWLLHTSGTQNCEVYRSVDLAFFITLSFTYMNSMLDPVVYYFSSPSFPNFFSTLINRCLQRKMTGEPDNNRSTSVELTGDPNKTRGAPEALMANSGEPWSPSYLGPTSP

[14] = biological target: NMUR2 (UniProt Q9GZQ4 1-415, limits assumed); assay: cell-based or functional assay
Chain of NMUR2 (Q9GZQ4 whole entry): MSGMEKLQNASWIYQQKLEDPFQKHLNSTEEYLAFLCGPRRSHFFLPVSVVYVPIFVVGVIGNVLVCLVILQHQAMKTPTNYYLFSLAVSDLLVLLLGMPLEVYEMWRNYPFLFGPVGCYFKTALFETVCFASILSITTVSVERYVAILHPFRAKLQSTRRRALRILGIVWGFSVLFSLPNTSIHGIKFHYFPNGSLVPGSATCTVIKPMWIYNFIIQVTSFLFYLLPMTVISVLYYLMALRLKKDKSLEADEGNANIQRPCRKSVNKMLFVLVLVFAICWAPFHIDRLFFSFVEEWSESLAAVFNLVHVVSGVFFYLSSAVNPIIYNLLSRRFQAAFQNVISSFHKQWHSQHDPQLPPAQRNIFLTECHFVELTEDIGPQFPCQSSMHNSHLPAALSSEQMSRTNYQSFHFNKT

## CC(C)C[C@@H](NC(=O)CNC(=O)CN)C(=O)O
[1]
  release of GLP-1 by STC-1 cells: stimulated significant release of GLP-1
[2]
  real-time Ca2+ flux: stimulate greater Ca^2+ flux

## Gly-Gly-[dL] [DT-110, tripeptide glycine-glycine-D-leucine (GGdL)]
[3]
  percent activation (calcium flux, GPCRProfiler), DT-110 @ 1.25 mM, Avg.: 0.5%
  percent activation (calcium flux, GPCRProfiler), DT-110 @ 1.25 mM, n1: 0.1%
  percent activation (calcium flux, GPCRProfiler), DT-110 @ 1.25 mM, n2: 0.8%
  percent activation (calcium flux, GPCRProfiler), DT-110 @ 12.5 mM, Avg.: -0.9%
  percent activation (calcium flux, GPCRProfiler), DT-110 @ 12.5 mM, n1: -0.8%
  percent activation (calcium flux, GPCRProfiler), DT-110 @ 12.5 mM, n2: -0.9%
[4]
  percent activation (calcium flux, GPCRProfiler), DT-110 @ 1.25 mM, Avg.: -0.7%
  percent activation (calcium flux, GPCRProfiler), DT-110 @ 1.25 mM, n1: 0.6%
  percent activation (calcium flux, GPCRProfiler), DT-110 @ 1.25 mM, n2: -2%
  percent activation (calcium flux, GPCRProfiler), DT-110 @ 12.5 mM, Avg.: -1%
  percent activation (calcium flux, GPCRProfiler), DT-110 @ 12.5 mM, n1: -1%
  percent activation (calcium flux, GPCRProfiler), DT-110 @ 12.5 mM, n2: -0.9%
[5]
  percent activation (calcium flux, GPCRProfiler), DT-110 @ 1.25 mM, Avg.: 0.4%
  percent activation (calcium flux, GPCRProfiler), DT-110 @ 1.25 mM, n1: 0.2%
  percent activation (calcium flux, GPCRProfiler), DT-110 @ 1.25 mM, n2: 0.7%
  percent activation (calcium flux, GPCRProfiler), DT-110 @ 12.5 mM, Avg.: -0.1%
  percent activation (calcium flux, GPCRProfiler), DT-110 @ 12.5 mM, n1: -0.5%
  percent activation (calcium flux, GPCRProfiler), DT-110 @ 12.5 mM, n2: 0.3%
[6]
  percent activation (calcium flux, GPCRProfiler), DT-110 @ 1.25 mM, Avg.: -1.9%
  percent activation (calcium flux, GPCRProfiler), DT-110 @ 1.25 mM, n1: -1.3%
  percent activation (calcium flux, GPCRProfiler), DT-110 @ 1.25 mM, n2: -2.5%
  percent activation (calcium flux, GPCRProfiler), DT-110 @ 12.5 mM, Avg.: -6.6%
  percent activation (calcium flux, GPCRProfiler), DT-110 @ 12.5 mM, n1: -6.7%
  percent activation (calcium flux, GPCRProfiler), DT-110 @ 12.5 mM, n2: -6.6%
[7]
  percent activation (calcium flux, GPCRProfiler), DT-110 @ 1.25 mM, Avg.: -0.2%
  percent activation (calcium flux, GPCRProfiler), DT-110 @ 1.25 mM, n1: 0%
  percent activation (calcium flux, GPCRProfiler), DT-110 @ 1.25 mM, n2: -0.4%
  percent activation (calcium flux, GPCRProfiler), DT-110 @ 12.5 mM, Avg.: 0%
  percent activation (calcium flux, GPCRProfiler), DT-110 @ 12.5 mM, n1: 0.4%
  percent activation (calcium flux, GPCRProfiler), DT-110 @ 12.5 mM, n2: -0.4%
[8]
  percent activation (calcium flux, GPCRProfiler), DT-110 @ 1.25 mM, Avg.: 0%
  percent activation (calcium flux, GPCRProfiler), DT-110 @ 1.25 mM, n1: 0.7%
  percent activation (calcium flux, GPCRProfiler), DT-110 @ 1.25 mM, n2: -0.8%
  percent activation (calcium flux, GPCRProfiler), DT-110 @ 12.5 mM, Avg.: -0.3%
  percent activation (calcium flux, GPCRProfiler), DT-110 @ 12.5 mM, n1: -0.6%
  percent activation (calcium flux, GPCRProfiler), DT-110 @ 12.5 mM, n2: 0%
[9]
  percent activation (calcium flux, GPCRProfiler), DT-110 @ 1.25 mM, Avg.: 69.2%
  percent activation (calcium flux, GPCRProfiler), DT-110 @ 1.25 mM, n1: 76.5%
  percent activation (calcium flux, GPCRProfiler), DT-110 @ 1.25 mM, n2: 62%
  percent activation (calcium flux, GPCRProfiler), DT-110 @ 12.5 mM, Avg.: 64.5%
  percent activation (calcium flux, GPCRProfiler), DT-110 @ 12.5 mM, n1: 60.7%
  percent activation (calcium flux, GPCRProfiler), DT-110 @ 12.5 mM, n2: 68.3%
[10]
  percent activation (calcium flux, GPCRProfiler), DT-110 @ 1.25 mM, Avg.: -0.5%
  percent activation (calcium flux, GPCRProfiler), DT-110 @ 1.25 mM, n1: 3%
  percent activation (calcium flux, GPCRProfiler), DT-110 @ 1.25 mM, n2: -4%
  percent activation (calcium flux, GPCRProfiler), DT-110 @ 12.5 mM, Avg.: 3.4%
  percent activation (calcium flux, GPCRProfiler), DT-110 @ 12.5 mM, n1: -0.2%
  percent activation (calcium flux, GPCRProfiler), DT-110 @ 12.5 mM, n2: 7%
[11]
  percent activation (calcium flux, GPCRProfiler), DT-110 @ 1.25 mM, Avg.: -9.5%
  percent activation (calcium flux, GPCRProfiler), DT-110 @ 1.25 mM, n1: -9.3%
  percent activation (calcium flux, GPCRProfiler), DT-110 @ 1.25 mM, n2: -9.6%
  percent activation (calcium flux, GPCRProfiler), DT-110 @ 12.5 mM, Avg.: 50.2%
  percent activation (calcium flux, GPCRProfiler), DT-110 @ 12.5 mM, n1: 55.9%
  percent activation (calcium flux, GPCRProfiler), DT-110 @ 12.5 mM, n2: 44.5%
[12]
  percent activation (calcium flux, GPCRProfiler), DT-110 @ 1.25 mM, Avg.: -9.5%
  percent activation (calcium flux, GPCRProfiler), DT-110 @ 1.25 mM, n1: -9.4%
  percent activation (calcium flux, GPCRProfiler), DT-110 @ 1.25 mM, n2: -9.6%
  percent activation (calcium flux, GPCRProfiler), DT-110 @ 12.5 mM, Avg.: -9.6%
  percent activation (calcium flux, GPCRProfiler), DT-110 @ 12.5 mM, n1: -9.5%
  percent activation (calcium flux, GPCRProfiler), DT-110 @ 12.5 mM, n2: -9.7%
[13]
  percent activation (calcium flux, GPCRProfiler), DT-110 @ 1.25 mM, Avg.: -8.1%
  percent activation (calcium flux, GPCRProfiler), DT-110 @ 1.25 mM, n1: -8.1%
  percent activation (calcium flux, GPCRProfiler), DT-110 @ 1.25 mM, n2: -8%
  percent activation (calcium flux, GPCRProfiler), DT-110 @ 12.5 mM, Avg.: 54.3%
  percent activation (calcium flux, GPCRProfiler), DT-110 @ 12.5 mM, n1: 52.9%
  percent activation (calcium flux, GPCRProfiler), DT-110 @ 12.5 mM, n2: 55.7%
[14]
  percent activation (calcium flux, GPCRProfiler), DT-110 @ 1.25 mM, Avg.: 2.4%
  percent activation (calcium flux, GPCRProfiler), DT-110 @ 1.25 mM, n1: 0.9%
  percent activation (calcium flux, GPCRProfiler), DT-110 @ 1.25 mM, n2: 3.9%
  percent activation (calcium flux, GPCRProfiler), DT-110 @ 12.5 mM, Avg.: -0.9%
  percent activation (calcium flux, GPCRProfiler), DT-110 @ 12.5 mM, n1: 0.4%
  percent activation (calcium flux, GPCRProfiler), DT-110 @ 12.5 mM, n2: -2.2%
